In the nanobody polyreactivity screen of Harvey et al. (2022):

Experiment: yeast display, Sf9 membrane polyspecificity reagent, FACS + sequencing; frameworks hold sequencing errors
Procedure, shortened: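 Using colony PCR, genes from sorted yeast display clones were amplified, then sequenced on MiSeq at 2 × 250 and filtered by CDR length. The clones had been stained with 10% biotinylated, detergent-solubilized Sf9 membrane reagent for 1 hour at 4 °C and sorted by FACS into low and high (top ~1%) gates on anti-HA and streptavidin fluorescence. Polyreactivity labels come from the gate of origin.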

Sequence | polyreactivity (PSR sort gate)
QVQLVESGGGLVQAGGSLRLSCAASGSIFKRYAMGWYRHAPGKERELVAAISYSGGSTNYADSVKGRFTISRDNAKNTVYLQMNSLKPEDTAVYYCAKRSTSRGYDYWGQGTQVTVSS | high polyreactivity
QVQLVESGGGLVQAGGSLRLSCAASGSIFYFNAMGWYRQAPGKERELVADITSGGSTYYADSVKGRFTISRDNAKNTVYLQMNSLKPEDTAVYYCNAALPVTRSERYGSDYWGQGTQVTVSS | low polyreactivity
QVQLVESGVGLVQAGGILRLSCAASGSIFWPNAMGWYRHAPGKERELVAGISYSGGRTYYADSVKARFTISRDNEKNTVYLQMNSLKPEDTAVYYCTARRSSGYGYWGQGTHVTVSS | high polyreactivity
QVQLVESGGGLVQAGGSLRLSCAASGLIFSQNAMGWYRQAPGKERELVARITLSGTSTYYADSVKGRFTISRDNAKNTVYLQMISLKPEDTAVYYCNTRSYSYYVPYRYDYWGQGTQVTVSS | high polyreactivity
QVQLVESGGGLVQAGGSLRLSCAASGRIFWPNTMGWYRQAPGKERELVATITSTGTRTYYADSVKGRFTISRDNAKNTVYLQMNSLNPEDTAVYYCNARGYYRPDRPTRRNRFDYWGQGTQVTVSS | high polyreactivity
QVQLVESGGGKVQAGGSLRLICAASGSTFTYNTMGWYRQAPGKERELVAAISSGGSTYYADSVKGRFTISRDNAKNTVYLQLNSLNPVDTAVYYCAATAQKYSRYGSRYYYWGQGTQVTVSS | high polyreactivity
QVQVVESRGGLVQAGGSLRLSCAASGLIFLGYAMGWYRQAPGKERELVASIRTGGSTSYADSVKGRFTISRDNENNRVYLQMNSLKPEDTAVYYCAADRGRPNLPGDYWGQGSQVTVSS | low polyreactivity
QVQLVESGGGLVQAGGSLRLSCAASGITFGRNTMGWYRQAPGKERELVAAIDSGGNTYADSVKGRFTISRDNAKNTVFLQMNSLKPEDTAVYYCAVDGGEFSSYGYWGQGTQVTVSS | low polyreactivity
QVQLVESGGGLVQAGGSLRLSCAASGFTFGAYAMGWYRHAPGKERELVAAINRRGGSTYYADSVKGRFTISRENAKNTVYLQMKSLKPEDTAVYYCNAPFGYDYWGQGTQVTVSS | high polyreactivity
QVQLVESGGGLVQAGASLRLSCAGSGIIFTRYAMGWYRQAPGKERELVAAITRNGVSTYYADSVKGRFTISRDNAKNTVYLQMNSLKPEDTAVYYCNTYVLRRYAYGYWGQGTQVTVSS | high polyreactivity
QVQLVESGGGLVQAGGSLRLSCAASGRTLSGNAMGWYRQAPGKERELVASISTSTDGTYYADSVKGRFTISRDNAKNTVYLQMNSLKPEDTAVYYCTTTTYHWYYYRWEIFDYWGQGTQVTVSS | low polyreactivity
QVQLVESGGGLVQAGGSLRLSCAASGNIFGVYTMGWYRQAPGKERELVAAISDGGSTYYADSVKVRFTISRDNAKNTVYLQMNSLKPEDTAVYYCAASKIGYWGDYFRYYYWGQGTQVTVSS | low polyreactivity
QVQLVESGGGLVQAGGSLRLSCAASGFTFYYNAMGWYRQAPGKERELVAIRFRGGNTYYADSVKGRFTISRDNAKNTVYLQMNSLKPEDTAVYYCNADDRGSTYVDFDYWGQGTQVTVSS | low polyreactivity
QVQLVESGGGLVQAGGSLRLSCAASGSIFASNAMGWYRQAPGKEREFVAAIRYSGGITYYADSVKGRFTISRDNAKNTVYLQMNSLKPEDTAVYSCAAYGWGIRWYSRFDYWGQGTPVTVSS | high polyreactivity
QVQRVESGGGLVQAGGSLRLSCAASGNIFGYAMGWYRQAPGKERELVAAISRGGGTYYADSVKGRFTISRDNAKNTVYLQMNSLKPEDTADYYCAARLVKGYSRMNYWGQGTQVTVSS | high polyreactivity
QVQLVESGGGLVQAAGSLRLSCAASGRTFKYNAMGWYRQAPGKERELVAAITRSGTTYYADSVKGRFTISRDNAKNTVYLQMNSLKPEDTAVYYCNARIVNYGSYYYWGQGTQVTVSS | high polyreactivity
QVQLVESGGGLVQAGGSLRLSCAASGNIFKVNTMGWYRQAPGKERELVAAINRSGGRPYYADSVKGSFTISRDNAKNTVYLQMNSLKPEDTAVYYCATRVHKSTHGYDYWGQGTQVTVSS | high polyreactivity
QVQLVESGGGLVQAGGSLRLSCAASGLIFVPYAMGWYRQAPGKERELVAAINSGATTYYADSVKGRFTISRDNAKNTVYLQMNSLKPEDTAVYYCNAEYPVYVYWFDYWGQGTQVTVSS | high polyreactivity
QVQLVESGGGLVQAGGSLRLSCAASGFTFWWYTMGWYRQAPGKERELVAAITWSGSRTYYADSVKGRFTISRDNAKNTVYLQMNSLKPEDTAVYYCAATYLKVHGEYDYWGQGTQVTVSS | high polyreactivity
QVQLVESGGGLVQAGGSLRLSCAASGRTFYYYAMGWYRQAPGKERELVASISWSGGSTYYADSVKGRFTISRDNAKNTVYLQMNSLKPEDTAVYYCNAQYHTYRWLYAVYLSGDYWGQGTQVTVSS | low polyreactivity
QVQLVESGGGLVQAGGSLRLSCAASGRSFYNYAMGWYRQAPGKERELVAAISGSGGSTYYADSVKGRFTISRDNAKNSVYLQMNSLKPEDTAVYYCSTSGPQYYSRNFDSWGQGTQVTVSS | low polyreactivity
QVQLVESGGGLVQAGGSLSLSCAASGRIFSLNVMGWYSQARGKERELVATIRGRGTSTYYADSVKGRFTISRDTAKNTVYLQMNSLKPEDTAVFYCAARGHGAYGYWGQGTQVTVSS | low polyreactivity
QVQLVESGGGLVQAGGSLRLSCAASGGTFFKNAMGWYRQAPGKERELVAVIDTISTSTYYADSVKGRFTISRDNAKNTVYLQMNSLKPEDTAVYYCAAEYGPGLTEGLYYYWGQGTQVTVSS | high polyreactivity
QVQLVESGGGLVQAGGSLRLSCAASGRTFRPYAMGWYRQAPGKERELVAAISSGGSTYYADSVKGRFTISRDNAKNTVYLQMNSLKPEDTAVYYCNAVGLWARDYGYWGQGTQVTVSS | high polyreactivity
QVQLVESGVGLVQAGGSLRLSCSASGSTFYTYAMGWYRQAPGKDRELVAAINLRGGRTYYADSVKGRFTISRDTAKNTVYLQMNSRKPEDTAVYYCAAQSIAYYKQIYYLGMDYWGQGTQVTVSS | high polyreactivity
QVQLVESGGGLVQAGGSLRLSSAASGSIFSAYAMGWYRQAPGKERELVATISRSGASTYYADSVKGRFTISRDNAKNTVYLQMNSLKPEDTAVYYCAARYYSPAYRLGGVDYWGQGTQVTVSS | high polyreactivity
QVQLVESGGGLVQAGGSLRLSCAASGSIFAYYSMGWYIQAPGKERELVAAISWSGGSTYYADSVKGRFTISRDNAKNTVYLQMNSLKPEDTAVYYCNVARSYSKMYWGQGTQVTVSS | high polyreactivity
QVRLVESGGGLVQAGGSLRLSCAASGRIFQYYAMGWYRQAPGKERELVASITSGGGSTYYADSVKGRFTISRDNAKNTVYVQMNSLKPEDSAVYYCAVDIYNYSNVHYYYWGQGTQVTVSS | low polyreactivity
QVQLVESGGGLVQAGGSLRLSCAASGRIFRAYARGWYRQAPGKERELVAAITRGGGTYYADSVKGRFTISRDNAKNSVYLQMNSLKPEDTAVYYCAAGRQRGPGYYFTFDYWGQGTQVTVSS | high polyreactivity
QVQLVESGGGLVQAGGSLRLSCAASGSIFYRNALGWYRQAPGKERELVAAISSDGSTNYADSVKGRFTISRDNAKNTVYLQMNSLKPEDTAVYYCAAPWTQILDYWGQGTQVTVSS | low polyreactivity
